Source: paper PMC3821027
Where two headings read alike, the source gives them in different places.

Columns and labels:
[1] = tested on: rCTS (TRX-L1 ORF2p CTS, wild type) (Homo sapiens (LRE1 / L1.2 element, pSM42)); assay: EMSA
[2] = tested on: rCTS (TRX-L1 ORF2p CTS, wild type) (Homo sapiens (LRE1 / L1.2 element, pSM42)); assay: EMSA; remark: listed apart in the source

380 nt L1 3'UTR RNA
Kd [1]: 0.063 µM
Kd [2]: 0.057 µM
